Data reported in patent US20210261650A1 (published 2021).

Target: SARS-CoV-2 Spike (S) protein on pseudotyped virus or live SARS-CoV-2 (SARS-CoV-2 (BetaCoV/Wuhan-Hu-1/2019 for …, UniProt P0DTC2 14-1273))
Experiment: cell-based or functional assay

B1: SARS-CoV-2 S310 mAb (antibody, V domains shown)
VH: QVQLVQSGAELKKPGSSVKVSCKASGGTFNSYSFNWVRQAPGQGLEWLGGIIPVLGTSNYAQKFQGRVAVTADEFTTTAYMELSSLRSEDTAVYYCATRTYDSSGYRPYYYGLDVWGQGTPVTVSS
VL: QSALTQPASVSGSPGQSITISCTGTSSDVGSYNLVSWYQQRPGKAPELMIYEVTKRPSGLSNRFSGSKSGNTASLTISGLQAEDEADYYCCSYAGSDTVIFGGGTKVTVL
  Percent neutralization of infection, dilution 2: -4%
  Percent neutralization of infection, dilution 6: -15%
  Percent neutralization of infection, dilution 18: -15%
  Percent neutralization of infection, dilution 54: -6%
